Source: patent publication US4937390A, “Compound useful for the production of 3-deoxy-3-fluoro-myo-inositol” (University of Pittsburgh, priority 1989, dated 1990)

Substrate: O[C@H]1[C@H](O)[C@@H](O)[C@H](O)[C@@H](O)[C@H]1O
Assay: [3H]myo-inositol uptake by the myo-inositol transporter in PC12 cells
Format: cell-based, rat
Conditions: other: Lineweaver-Burke plots, [3H]myo-inositol 25 nM with increasing unlabeled myo-inositol, 37.0 °C
Experimental: To determine if the effect of the fluoro-myo-inositol analogs might be mediated by the blockade of the myo-inositol transporter, which is responsible for uptake and accumulation of myo-inositol into the cell, the ability of these two compounds to block [^3 H]myo-inositol transport was studied directly.
The uptake of [^3 H]myo-inositol by the myo-inositol transporter was determined as follows:
PC12 cells were gently detached and maintained in a suspension culture in RPMI medium (both myo-inositol and serum free) at 37° C. ]^3 H]myo-inositol was added to this culture at a concentration of 1μCi/ml. Aliquots of this suspension were removed at the indicated time, diluted in 10 volumes of ice-cold PBS containing 10 mM unlabelled myo-inositol to stop the uptake process, centrifuged at 4° C. for 20 minutes at 50 xg. The cell pellet, which contained the transported [^3 H]myo-inositol, was dissolved in dilute NaOH and the radioactivity quantified by liquid scintillation counting.
The […] and Vmax of myoinositol were determined from LineweaverBurke plots
of the uptake of [^3 H]myoinositol (25 nM) in the presence of
increasing concentrations of unlabeled myoinositol in PC12 cells. The Ki
of the two fluoromyo-inositol analogs was determined by conducting the
uptake studies in the presence of a fixed concentration (1 mM) of each

B1: myo-inositol transporter (Rattus norvegicus) (protein)
chain: MRAVLETADIAIVALYFVLVMCIGFFAMWKSNRSTVSGYFLAGRSMTWVAIGASLFVSNIGSEHFIGLAGSGAASGFAVGAWEFNALLLLQLLGWVFIPIYIRSGVYTMPEYLSKRFGGHRIQVYFAALSLLLYIFTKLSVDLYSGALFIQESLGWNLYVSVILLIGMTALLTVTGGLVAVIYTDTLQALLMIIGALTLMVISMMKVGGFEEVKRRYMLASPNVASILLTHNLSNTNSCMVHPKADALKMLRDPTDEDVPWPGFILGQTPASVWYWCADQVIVQRVLAAKNIAHAKGSTLMAGFLKLLPMFIIVVPGMISRILFVDDIACINPEHCMQVCGSRAGCSNIAYPRLVMELVPVGLRGLMMAVMIAALMSDLDSIFNSASTIFTLDVYKLLRNNASSRELMIVGRIFVAFMVVISIAWVPIIVEMQGGQMYLYIQEVADYLTPPVAALFLLAIFWKRCNEQGAFYGGMAGFVLGAIRLILAFTYRAPECDQPDNRPSFIKDIHYMYVATALFWITGLITVIVSLLTPPPTKDQIRTTTFWSKKTVVTKESCSQKDEPYKMQEKSILRCSENSEVVSHTIPNGKSEDSIKGLQPEDVNLLVTCREEGNPVASMGHSGAETPVDAYSNGQAALMGERAREKETESRSRYWKFIDWFCGFKSRSLSKRSLRDSMDEEAVCLQMLEETPRVRVILNIGLFAVCSLGIFMFVYFSL
notes: PC12 cells were gently detached and maintained in a suspension culture; endogenous in cells; host or cells: PC12 cells
In the case of B1, the Km is reported as 45 µM and the Vmax is reported as 2.27 nmol/mg/h.
